From the supplement of paper PMC5998384 come the findings set out here.

For data set [1], the system named is HeLa Kyoto. The data set can be described thus: solubility in G1/S (NP-40 vs SDS abundance) (log2 ratio); higher = more soluble. Particulars: cell cycle stage: G1/S.
Data set [2] concerns HeLa Kyoto. The data set can be described thus: melting temperature (median over replicates), in situ; higher = more thermally stable.
For data set [3], the system named is HeLa Kyoto. The data set can be described thus: solubility change mitosis vs G1/S (difference of NP-40 vs SDS log2 ratios) (log2 ratio difference); higher = more soluble in mitosis.
In data set [4] the test system is HeLa Kyoto. The data set can be described thus: thermal stability score vs G1/S (z-score of summed log2 fold changes over temperatures); higher = more thermally stable than in G1/S.
Where [5] appears, read: cell cycle stage: early G1 (4.5 h after nocodazole release).
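For melting temperature (median over replicates), in situ in this document: HeLa Kyoto cells synchronized by double thymidine or nocodazole block, proteins quantified by TMT10plex mass spectrometry, three independent biological replicates.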
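For solubility change mitosis vs G1/S (difference of NP-40 vs SDS log2 ratios) in this document: synchronized HeLa Kyoto cells (double thymidine block for G1/S, nocodazole release for mitosis), protein amounts in NP-40 versus SDS lysates quantified by mass spectrometry, three biological replicates.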
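For solubility in G1/S (NP-40 vs SDS abundance) in this document: HeLa Kyoto cells arrested at G1/S by double thymidine block, proteins quantified by TMT10plex mass spectrometry in mild NP-40 versus SDS extracts, three biological replicates.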
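For thermal stability score vs G1/S (z-score of summed log2 fold changes over temperatures) in this document: synchronized HeLa Kyoto cells, proteins quantified by TMT10plex mass spectrometry, three biological replicates, mitosis taken 0.5 h after nocodazole release, G1/S directly after double thymidine block.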

With “MAAAGQLCLLYLSAGLLSRLGAAFNLDTREDNVIRKYGDPGSLFGFSLAMHWQLQPEDKRLLLVGAPRAEALPLQRANRTGGLYSCDITARGPCTRIEFDNDADPTSESKEDQWMGVTVQSQGPGGKVVTCAHRYEKRQHVNTKQESRDIFGRCYVLSQNLRIEDDMDGGDWSFCDGRLRGHEKFGSCQQGVAATFTKDFHYIVFGAPGTYNWKGIVRVEQKNNTFFDMNIFEDGPYEVGGETEHDESLVPVPANSYLGLLFLTSVSYTDPDQFVYKTRPPREQPDTFPDVMMNSYLGFSLDSGKGIVSKDEITFVSGAPRANHSGAVVLLKRDMKSAHLLPEHIFDGEGLASSFGYDVAVVDLNKDGWQDIVIGAPQYFDRDGEVGGAVYVYMNQQGRWNNVKPIRLNGTKDSMFGIAVKNIGDINQDGYPDIAVGAPYDDLGKVFIYHGSANGINTKPTQVLKGISPYFGYSIAGNMDLDRNSYPDVAVGSLSDSVTIFRSRPVINIQKTITVTPNRIDLRQKTACGAPSGICLQVKSCFEYTANPAGYNPSISIVGTLEAEKERRKSGLSSRVQFRNQGSEPKYTQELTLKRQKQKVCMEETLWLQDNIRDKLRPIPITASVEIQEPSSRRRVNSLPEVLPILNSDEPKTAHIDVHFLKEGCGDDNVCNSNLKLEYKFCTREGNQDKFSYLPIQKGVPELVLKDQKDIALEITVTNSPSNPRNPTKDGDDAHEAKLIATFPDTLTYSAYRELRAFPEKQLSCVANQNGSQADCELGNPFKRNSNVTFYLVLSTTEVTFDTPDLDINLKLETTSNQDNLAPITAKAKVVIELLLSVSGVAKPSQVYFGGTVVGEQAMKSEDEVGSLIEYEFRVINLGKPLTNLGTATLNIQWPKEISNGKWLLYLVKVESKGLEKVTCEPQKEINSLNLTESHNSRKKREITEKQIDDNRKFSLFAERKYQTLNCSVNVNCVNIRCPLRGLDSKASLILRSRLWNSTFLEEYSKLNYLDILMRAFIDVTAAAENIRLPNAGTQVRVTVFPSKTVAQYSGVPWWIILVAILAGILMLALLVFILWKCGFFKRSRYDDSVPRYHAVRIRKEEREIKDEKYIDNLEKKQWITKWNENESYS [ITGA6]”, the “solubility in G1/S (log2)” value in the data set on HeLa Kyoto [1] is 0.154. Further, the melting temperature in the data set on HeLa Kyoto [2] (cell cycle stage: G1/S) came out at 55.4 °C; in the data set on HeLa Kyoto [2] (cell cycle stage: mitosis), 55.6 °C. In addition, the “solubility change mitosis (log2)” value with HeLa Kyoto [3] is -0.116. Also, the thermal stability score in the data set on HeLa Kyoto [4] (setting [5]) was -2.3; in the data set with HeLa Kyoto [4] (cell cycle stage: mitosis), -1.75.
In the case of “MAAAMVPGRSESWERGEPGRPALYFCGSIRGGREDRTLYERIVSRLRRFGTVLTEHVAAAELGARGEEAAGGDRLIHEQDLEWLQQADVVVAEVTQPSLGVGYELGRAVAFNKRILCLFRPQSGRVLSAMIRGAADGSRFQVWDYEEGEVEALLDRYFEADPPGQVAASPDPTT [DNPH1]”, the “solubility in G1/S (log2)” value in the data set on HeLa Kyoto [1] was found to be 0.392. Besides, the melting temperature with HeLa Kyoto [2] (cell cycle stage: G1/S) and with HeLa Kyoto [2] (cell cycle stage: mitosis) was 55.3 °C in each case. Moreover, the “solubility change mitosis (log2)” value in the data set with HeLa Kyoto [3] amounted to 0.00918. The thermal stability score in the data set with HeLa Kyoto [4] (setting [5]) was -1.99; in the data set on HeLa Kyoto [4] (cell cycle stage: mitosis), -2.01.
For “MAAAQEADGARSAVVAAGGGSSGQVTSNGSIGRDPPAETQPQNPPAQPAPNAWQVIKGVLFRIFIIWAISSWFRRGPAPQDQAGPGGAPRVASRNLFPKDTLMNLHVYISEHEHFTDFNATSALFWEQHDLVYGDWTSGENSDGCYEHFAELDIPQSVQQNGSIYIHVYFTKSGFHPDPRQKALYRRLATVHMSRMINKYKRRRFQKTKNLLTGETEADPEMIKRAEDYGPVEVISHWHPNITINIVDDHTPWVKGSVPPPLDQYVKFDAVSGDYYPIIYFNDYWNLQKDYYPINESLASLPLRVSFCPLSLWRWQLYAAQSTKSPWNFLGDELYEQSDEEQDSVKVALLETNPYLLALTIIVSIVHSVFEFLAFKNDIQFWNSRQSLEGLSVRSVFFGVFQSFVVLLYILDNETNFVVQVSVFIGVLIDLWKITKVMDVRLDREHRVAGIFPRLSFKDKSTYIESSTKVYDDMAFRYLSWILFPLLGCYAVYSLLYLEHKGWYSWVLSMLYGFLLTFGFITMTPQLFINYKLKSVAHLPWRMLTYKALNTFIDDLFAFVIKMPVMYRIGCLRDDVVFFIYLYQRWIYRVDPTRVNEFGMSGEDPTAAAPVAEVPTAAGALTPTPAPTTTTATREEASTSLPTKPTQGASSASEPQEAPPKPAEDKKKD [CLPTM1]”, the “solubility in G1/S (log2)” value in the data set on HeLa Kyoto [1] is -0.0403. Besides, the melting temperature with HeLa Kyoto [2] (cell cycle stage: G1/S) is 53.4 °C; in the data set with HeLa Kyoto [2] (cell cycle stage: mitosis), 53.8 °C. In the data set on HeLa Kyoto [3], the “solubility change mitosis (log2)” value is -0.142. Also, the results for the thermal stability score in the data set on HeLa Kyoto [4] (setting [5]) and in the data set with HeLa Kyoto [4] (cell cycle stage: mitosis) were 3.21 and 0.298, respectively.
For “MAAARPSLGRVLPGSSVLFLCDMQEKFRHNIAYFPQIVSVAARMLKVARLLEVPVMLTEQYPQGLGPTVPELGTEGLRPLAKTCFSMVPALQQELDSRPQLRSVLLCGIEAQACILNTTLDLLDRGLQVHVVVDACSSRSQVDRLVALARMRQSGAFLSTSEGLILQLVGDAVHPQFKEIQKLIKEPAPDSGLLGLFQGQNSLLH [ISOC2]”, the “solubility in G1/S (log2)” value in the data set with HeLa Kyoto [1] was determined as 0.188. Further, the melting temperature in the data set with HeLa Kyoto [2] (cell cycle stage: G1/S) is 55.1 °C; with HeLa Kyoto [2] (cell cycle stage: mitosis) it was 54.9 °C. Moreover, the “solubility change mitosis (log2)” value in the data set with HeLa Kyoto [3] was -0.173. Further, the thermal stability score is 1.82 with HeLa Kyoto [4] (setting [5]) and -1.19 in the data set on HeLa Kyoto [4] (cell cycle stage: mitosis).
Turning to “MAAASGYTDLREKLKSMTSRDNYKAGSREAAAAAAAAVAAAAAAAAAAEPYPVSGAKRKYQEDSDPERSDYEEQQLQKEEEARKVKSGIRQMRLFSQDECAKIEARIDEVVSRAEKGLYNEHTVDRAPLRNKYFFGEGYTYGAQLQKRGPGQERLYPPGDVDEIPEWVHQLVIQKLVEHRVIPEGFVNSAVINDYQPGGCIVSHVDPIHIFERPIVSVSFFSDSALCFGCKFQFKPIRVSEPVLSLPVRRGSVTVLSGYAADEITHCIRPQDIKERRAVIILRKTRLDAPRLETKSLSSSVLPPSYASDRLSGNNRDPALKPKRSHRKADPDAAHRPRILEMDKEENRRSVLLPTHRRRGSFSSENYWRKSYESSEDCSEAAGSPARKVKMRRH [ALKBH5]”, the “solubility in G1/S (log2)” value in the data set on HeLa Kyoto [1] is -0.0973. Also, the melting temperature in the data set with HeLa Kyoto [2] (cell cycle stage: G1/S) turned out to be 51 °C; with HeLa Kyoto [2] (cell cycle stage: mitosis), 51.4 °C. Also, in the data set with HeLa Kyoto [3], the “solubility change mitosis (log2)” value was 0.0485. In addition, the thermal stability score in the data set with HeLa Kyoto [4] (setting [5]) was 3.65; in the data set with HeLa Kyoto [4] (cell cycle stage: mitosis), -0.482.
For the sequence “MAAASVTPPGSLELLQPGFSKTLLGTKLEAKYLCSACRNVLRRPFQAQCGHRYCSFCLASILSSGPQNCAACVHEGIYEEGISILESSSAFPDNAARREVESLPAVCPSDGCTWKGTLKEYESCHEGRCPLMLTECPACKGLVRLGEKERHLEHECPERSLSCRHCRAPCCGADVKAHHEVCPKFPLTCDGCGKKKIPREKFQDHVKTCGKCRVPCRFHAIGCLETVEGEKQQEHEVQWLREHLAMLLSSVLEAKPLLGDQSHAGSELLQRCESLEKKTATFENIVCVLNREVERVAMTAEACSRQHRLDQDKIEALSSKVQQLERSIGLKDLAMADLEQKVLEMEASTYDGVFIWKISDFARKRQEAVAGRIPAIFSPAFYTSRYGYKMCLRIYLNGDGTGRGTHLSLFFVVMKGPNDALLRWPFNQKVTLMLLDQNNREHVIDAFRPDVTSSSFQRPVNDMNIASGCPLFCPVSKMEAKNSYVRDDAIFIKAIVDLTGL [TRAF2]”, the “solubility in G1/S (log2)” value with HeLa Kyoto [1] stood at 0.0627. The melting temperature with HeLa Kyoto [2] (cell cycle stage: G1/S) was 52.5 °C; in the data set with HeLa Kyoto [2] (cell cycle stage: mitosis), 52.2 °C. The “solubility change mitosis (log2)” value in the data set with HeLa Kyoto [3] is -0.084. Moreover, the thermal stability score with HeLa Kyoto [4] (setting [5]) was -0.77; in the data set on HeLa Kyoto [4] (cell cycle stage: mitosis), -1.17.
